The term stoichiometry N denotes the number of molecules, sites or subunits per partner or assembly.

B1: S. pneumoniae ParE TOPRIM domain (ParE30, residues 404-647) (domain or fragment, Streptococcus pneumoniae, UniProt Q59961 404-647, looked up)
chain: KNKKDKGLLSGKLTPAQSKNPAKNELYLVEGDSAGGSAKQGRDRKFQAILPLRGKVVNTAKAKMADILKNEEINTMIYTIGAGVGADFSIEDANYDKIIIMTDADTDGAHIQTLLLTFFYRYMRPLVEAGHVYIALPPLYKMSKGKGKKEEVAYAWTDGELEELRKQFGKGATLQRYKGLGEMNADQLWETTMNPETRTLIRVTIEDLARAERRVNVLMGDKVEPRRKWIEDNVKFTLEETTVF
notes: Topoisomerase IV subunit ParE, Streptococcus pneumoniae, TOPRIM domain, residues 404-647; also called topoisomerase IV subunit ParE; source: E. coli, over-expressed, purified as described previously
B2: S. pneumoniae ParC breakage-reunion domain (ParC55, residues 1-488) (domain or fragment, Streptococcus pneumoniae, UniProt P72525 1-488, looked up)
chain: MSNIQNMSLEDIMGERFGRYSKYIIQDRALPDIRDGLKPVQRRILYSMNKDSNTFDKSYRKSAKSVGNIMGNFHPHGDSSIYDAMVRMSQNWKNREILVEMHGNNGSMDGDPPAAMRYTEARLSEIAGYLLQDIEKKTVPFAWNFDDTEKEPTVLPAAFPNLLVNGSTGISAGYATDIPPHNLAEVIDAAVYMIDHPTAKIDKLMEFLPGPDFPTGAIIQGRDEIKKAYETGKGRVVVRSKTEIEKLKGGKEQIVIIEIPYEINKANLVKKIDDVRVNNKVAGIAEVRDESDRDGLRIAIELKKDANTELVLNYLFKYTDLQINYNFNMVAIDNFTPRQVGIVPILSSYIAHRREVILARSRFDKEKAEKRLHIVEGLIRVISILDEVIALIRASENKADAKENLKVSYDFTEEQAEAIVTLQLYRLTNTDVVVLQEEEAELREKIAMLAAIIGDERTMYNLMKKELREVKKKFATPRLSSLEDTAKA
modifications: Tyr 118 linked covalently to the 5' phosphate end of the cleaved DNA (in the cleaved complexes; not in the resealed complex)
notes: Topoisomerase IV subunit ParC, Streptococcus pneumoniae, breakage-reunion domain, residues 1-488; also called topoisomerase IV subunit ParC; source: E. coli, over-expressed, purified as described previously

Series [1] addresses B2. In words: crystal structure; ParC55 and ParE30 (equimolar, 4 mg/ml) co-crystallised with the 34-bp E-site DNA (1:1:1.2) and quinazolinedione PD 0305970, 20 mM MgCl2, pH 7.0; 3.1 A; the same crystals back-soaked and soaked with levofloxacin (2.9 A), EDTA (3.3 A) or EDTA then Mg2+ (3.5 A). The following applies: both partners purified.
Series [2] concerns the molecule itself. The series is described as above.

Consider B1, for which, in series [1], the binding result is listed as “binds”.
For B2, in series [2], the “stoichiometry N” value was 2.

These data come from paper PMC2893164, “Structural Basis of Gate-DNA Breakage and Resealing by Type II Topoisomerases” (PLoS ONE, 2010).
